Here are results for one molecule from publication PMC3928310, “Model of a DNA-Protein Complex of the Architectural Monomeric Protein MC1 from Euryarchaea”.

What all share (assay): EMSA; EMSA: 10 mM Tris-HCl pH 7.5, 150 mM NaCl, 1 mM EDTA, 15 ug/ml BSA, 8% glycerol, 15 min at 20 C, 0.1 nM DNA, TBE gel; NMR PRE: 10 mM phosphate pH 6, 100 mM NaCl, 10% D2O
Common to all, as to conditions: protein: recombinant; label: 5'-32P on one strand; blunt

One data set deals with T1, MC1 R25A (Methanosarcina thermophila CHTI55, UniProt P12770 1-93, R25A).
T1 sequence: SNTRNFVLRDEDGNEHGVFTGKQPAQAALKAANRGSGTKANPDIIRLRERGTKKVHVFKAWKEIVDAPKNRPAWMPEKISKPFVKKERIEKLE

In another data set the target is T2, MC1 W74F (Methanosarcina thermophila CHTI55, UniProt P12770 1-93, W74F).
T2 sequence: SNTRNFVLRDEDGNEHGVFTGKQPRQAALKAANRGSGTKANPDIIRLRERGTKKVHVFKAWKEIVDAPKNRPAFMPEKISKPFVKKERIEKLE

Another data set deals with T3, MC1 I89A (Methanosarcina thermophila CHTI55, UniProt P12770 1-93, I89A).
T3 sequence: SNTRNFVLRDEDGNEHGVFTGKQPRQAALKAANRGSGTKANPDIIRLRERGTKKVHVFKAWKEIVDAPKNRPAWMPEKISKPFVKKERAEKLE

A further data set concerns the target T4, MC1 R71A (Methanosarcina thermophila CHTI55, UniProt P12770 1-93, R71A).
T4 sequence: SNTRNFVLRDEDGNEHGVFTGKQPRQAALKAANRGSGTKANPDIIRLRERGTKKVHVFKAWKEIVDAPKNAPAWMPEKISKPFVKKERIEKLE

A further data set addresses T5, MC1 P72A (Methanosarcina thermophila CHTI55, UniProt P12770 1-93, P72A).
T5 sequence: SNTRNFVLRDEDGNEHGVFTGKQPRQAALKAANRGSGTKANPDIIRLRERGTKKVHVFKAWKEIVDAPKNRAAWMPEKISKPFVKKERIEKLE

The next data set addresses T6, MC1 R25Q (Methanosarcina thermophila CHTI55, UniProt P12770 1-93, R25Q).
T6 sequence: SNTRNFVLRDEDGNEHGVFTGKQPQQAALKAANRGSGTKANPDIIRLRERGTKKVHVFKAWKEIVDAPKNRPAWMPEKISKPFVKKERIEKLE

A further data set addresses T7, MC1 Q23E (Methanosarcina thermophila CHTI55, UniProt P12770 1-93, Q23E).
T7 sequence: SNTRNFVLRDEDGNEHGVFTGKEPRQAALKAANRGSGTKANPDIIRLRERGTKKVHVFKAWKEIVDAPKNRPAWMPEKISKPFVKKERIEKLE

B1: 26 bp EMSA duplex (dsDNA)
DNA 1: GCCTCAAAAACACACACCCCCGACAG
DNA 2: CTGTCGGGGGTGTGTGTTTTTGAGGC
Broadly, the Kd is the free concentration of one partner at which half of the binding sites on the other are occupied at equilibrium, for simple one-to-one binding. As for B1, the dissociation constant (Kd) with MC1 R25A is 161 ± 14 nM; in the data set with MC1 W74F, 8.4 ± 1 nM; with MC1 I89A, 15.4 ± 2 nM; with MC1 R71A, 3.6 ± 0.2 nM; in the data set with MC1 P72A, 4.2 ± 0.5 nM; with MC1 R25Q it was 552 ± 34 nM. Further, the Kd with MC1 Q23E is 9.05 ± 2 nM.
